Holding throughout (conditions): remark: other sources report otherwise
The target of assay [1] is T1, pyrene-labeled ADP-actin filaments (chicken breast muscle actin) (chicken), P68139. As to the kind of experiment: other fluorescence titration.
The target of assay [2] is T1, pyrene-labeled ADP-actin filaments …. As to the kind of experiment: other fluorescence titration. This is another data set of the same source.
Assay [3] has the same target. In words: stopped-flow fluorescence kinetics.
For assay [4], the target named is Mg-ATP-actin monomer (chicken breast muscle actin) (chicken), P68139. In words: inhibition of nucleotide exchange.

B1: wild-type fission yeast cofilin, P78929 1-137 (natural protein)
chain: MSFSGVKVSPECLEAFQELKLGKSLRYVVFKMNDTKTEIVVEKKSTDKDFDTFLGDLPEKDCRYAIYDFEFNLGEGVRNKIIFISWSPDVAPIKSKMVYSSSKDTLRRAFTGIGTDIQATDFSEVAYETVLEKVTRK
modifications: here or on the partner: pyrene (pyrene iodoacetamide) on cysteine-374
Take B1: the Kd (usually a measure of binding affinity in units of concentration) in assay [1] worked out at 340 nM. Further, in assay [2], the Ka of the cooperative model (Kd = 1/(ω*Ka)) turned out to be 0.15 µM⁻¹, the Kd stood at 330 nM and the binding cooperativity ω was 19.9. Moreover, in assay [3], the kobs (3 µM cofilin, 1 µM filaments) stood at 73.6 s⁻¹ and the kon (commonly the second-order rate constant of association) is 1.25e+07 M⁻¹ s⁻¹. In assay [4], this molecule showed a Kd of 80 nM.

Values taken from PMC3206353.
